# Test results: the supplement of paper PMC11908140
# B1: library; numbered along this chain (parent)
# chain: MRKPRAAVGSGHRKQAASQEGRQKHAKNNSQAKPSACDGLARQPEEVVLQASVSSYHLFRDVAEVTAFRGSLLSWYDQEKRDLPWRRRAEDEMDLDRRAYAVWVSEVMLQQTQVATVINYYTGWMQKWPTLQDLASASLEEVNQLWAGLGYYSRGRRLQEGARKVVEELGGHMPRTAETLQQLLPGVGRYTAGAIASIAFGQATGVVDGNVARVLCRVRAIGADPSSTLVSQQLWGLAQQLVDPARPGDFNQAAMELGATVCTPQRPLCSQCPVESLCRARQRVEQEQLLASGSLSGSPDVEECAPNTGQCHLCLPPSEPWDQTLGVVNFPRKASRKPPREESSATCVLEQPGALGAQILLVQRPNSGLLAGLWEFPSVTWEPSEQLQRKALLQELQRWAGPLPATHLRHLGEVVHTFSHIKLTYQVYGLALEGQTPVTTVPPGARWLTQEEFHTAAVSTAMKKVFRVYQGQQPGTCMGSKRSQVSSPCSRKKPRMGQQVLDNFFRSHISTDAHSLNSAAQ
# Variants of: B1
# Assay: 8OG:A repair function score (normalized; synonymous = 0, nonsense = -1) (normalized log-likelihood score); higher = more repair activity (WT-like)
# Settings: with 8OG:A DNA repair reporter (GFP) in HEK-293 MUTYH KO cells
# How it was run: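 GFP+ (repair) and GFP− bins of viable mCherry+ cells were collected at 72 h from MUTYH knockout HEK-293 cells bearing lentiviral MUTYH cDNA NNN codon-scan libraries in 10 pg/ml doxycycline, co-transfected with an 8OG:A GFP repair reporter and mCherry. Tile amplicons were sequenced, and per-tile Rosace fitness scores were normalized to a repair function score anchored on synonymous and nonsense distributions. Synonymous medians were set to 0 and nonsense to -1, with variants under 300 counts per million at the start removed.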
# 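Also: cells sorted at 72 h after reporter transfection.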
row,Variant,8OG:A repair function score
1,MRKPRAAVGSGHRKQAASQEGRQKHAKNNSQAKPSACDGLARQPEEVVLQASVSSYHLFRDVAEVTAFRGSLLSWYDQEKRDLPWRRRAEDEMDLDRRAYAVWVSEVMLQQTQVATVINYYTGWMQKWPTPQDLASASLEEVNQLWAGLGYYSRGRRLQEGARKVVEELGGHMPRTAETLQQLLPGVGRYTAGAIASIAFGQATGVVDGNVARVLCRVRAIGADPSSTLVSQQLWGLAQQLVDPARPGDFNQAAMELGATVCTPQRPLCSQCPVESLCRARQRVEQEQLLASGSLSGSPDVEECAPNTGQCHLCLPPSEPWDQTLGVVNFPRKASRKPPREESSATCVLEQPGALGAQILLVQRPNSGLLAGLWEFPSVTWEPSEQLQRKALLQELQRWAGPLPATHLRHLGEVVHTFSHIKLTYQVYGLALEGQTPVTTVPPGARWLTQEEFHTAAVSTAMKKVFRVYQGQQPGTCMGSKRSQVSSPCSRKKPRMGQQVLDNFFRSHISTDAHSLNSAAQ [L131P],-0.153
2,MRKPRAAVGSGHRKQAASQEGRQKHAKNNSQAKPSACDGLARQPEEVVLQASVSSYHLFRDVAEVTAFRGSLLSWYDQEKRDLPWRRRAEDEMDLDRRAYAVWVSEVMLQQTQTATVINYYTGWMQKWPTLQDLASASLEEVNQLWAGLGYYSRGRRLQEGARKVVEELGGHMPRTAETLQQLLPGVGRYTAGAIASIAFGQATGVVDGNVARVLCRVRAIGADPSSTLVSQQLWGLAQQLVDPARPGDFNQAAMELGATVCTPQRPLCSQCPVESLCRARQRVEQEQLLASGSLSGSPDVEECAPNTGQCHLCLPPSEPWDQTLGVVNFPRKASRKPPREESSATCVLEQPGALGAQILLVQRPNSGLLAGLWEFPSVTWEPSEQLQRKALLQELQRWAGPLPATHLRHLGEVVHTFSHIKLTYQVYGLALEGQTPVTTVPPGARWLTQEEFHTAAVSTAMKKVFRVYQGQQPGTCMGSKRSQVSSPCSRKKPRMGQQVLDNFFRSHISTDAHSLNSAAQ [V114T],-0.141
3,MRKPRAAVGSGHRKQAASQEGRQKHAKNNSQAKPSACDGLARQPEEVVLQASVSSYHLFRDVAEVTAFRGSLLSWYDQEKRDLPWRRRAEDEMDLDRRAYAVWVSEVMLQQTQVATVINYYTGWMQKWPTLQDLASASLEEVNQLWAGLGYYSRGRRLQEGARKVVEELGGHMPRTAETLQQLLPGVGRYTAGAIASIAFGQATGVMDGNVARVLCRVRAIGADPSSTLVSQQLWGLAQQLVDPARPGDFNQAAMELGATVCTPQRPLCSQCPVESLCRARQRVEQEQLLASGSLSGSPDVEECAPNTGQCHLCLPPSEPWDQTLGVVNFPRKASRKPPREESSATCVLEQPGALGAQILLVQRPNSGLLAGLWEFPSVTWEPSEQLQRKALLQELQRWAGPLPATHLRHLGEVVHTFSHIKLTYQVYGLALEGQTPVTTVPPGARWLTQEEFHTAAVSTAMKKVFRVYQGQQPGTCMGSKRSQVSSPCSRKKPRMGQQVLDNFFRSHISTDAHSLNSAAQ [V207M],-0.495
4,MRKPRAAVGSGHRKQAASQEGRQKHAKNNSQAKPSACDGLARQPEEVVLQASVSSYHLFRDVAEVTAFRGSLLSWYDQEKRDLPWRRRAEDEMDLDRRAYAVWVSEVMLQQTQVATVINYYTGWMQKWPTLQDLASASLEEVNQLWAGLGYYSRGRRLQEGARKVVEELGGHMPRTAETLQQLLPGVGRYTAGAIASIAFGQATGVVDGNVARVLCRVRAIGADPSSTLVSQQLWGLAQQLVDPARPGDFNQAAMELGATVCTPQRPLCSQCPVESLCRARQRVEQEQLLASGSLSGSPDVEECAPNTGQCHLCLPPSEPWDQTLGVVNFPRKASRKPPREESSATCVLEQPGFLGAQILLVQRPNSGLLAGLWEFPSVTWEPSEQLQRKALLQELQRWAGPLPATHLRHLGEVVHTFSHIKLTYQVYGLALEGQTPVTTVPPGARWLTQEEFHTAAVSTAMKKVFRVYQGQQPGTCMGSKRSQVSSPCSRKKPRMGQQVLDNFFRSHISTDAHSLNSAAQ [A354F],-0.0389
5,MRKPRAAVGSGHRKQAASQEGRQKHAKNNSQAKPSACDGLARQPEEVVLQASVSSYHLFRDVAEVTAFRGSLLSWYDQEKRDLPWRRRAEDEMDLDRRAYAVWVSEVMLQQTQVATVINYYTGWMQKWPTLQDLASASLEEVNQLWAGLGYYSRGRRLQEGARKVVEELGGHMPRTAETLQQLLPGVGRYTAGAIASIAFGQATGVVDGNVARVLCRVRAIGADPSSTLVSQQLWGLAQQLVDPARPGDFNQAAMELGATVCTPQRPLCSQCPVESLCRARQRVEQEQLLASGSLSGSPDVEECAPNTGQCHLCLPPSEPWDQTLGVVNFPRKASRKPPREESSATCGLEQPGALGAQILLVQRPNSGLLAGLWEFPSVTWEPSEQLQRKALLQELQRWAGPLPATHLRHLGEVVHTFSHIKLTYQVYGLALEGQTPVTTVPPGARWLTQEEFHTAAVSTAMKKVFRVYQGQQPGTCMGSKRSQVSSPCSRKKPRMGQQVLDNFFRSHISTDAHSLNSAAQ [V348G],-1.15
6,MRKPRAAVGSGHRKQAASQEGRQKHAKNNSQAKPSACDGLARQPEEVVLQASVSSYHLFRDVAEVTAFRGSLLSWYDQEKRDLPWRRRAEDEMDLDRRAYAVWVSEVMLQQTQVATVINYYTGWMQKWPTLQDLASASLEEVNQLWAGLGYYSRGRRLQEGARKVVEELGGHMPRTAETLQQLLPGVGRYTAGAIASIAFGQATGVVDGNVARVLCRVRAIGADPSSTLVSQQLWGLAQQLVDPARPGDFNQAAMELGATVCTPQRPLCSQCPVESLCSARQRVEQEQLLASGSLSGSPDVEECAPNTGQCHLCLPPSEPWDQTLGVVNFPRKASRKPPREESSATCVLEQPGALGAQILLVQRPNSGLLAGLWEFPSVTWEPSEQLQRKALLQELQRWAGPLPATHLRHLGEVVHTFSHIKLTYQVYGLALEGQTPVTTVPPGARWLTQEEFHTAAVSTAMKKVFRVYQGQQPGTCMGSKRSQVSSPCSRKKPRMGQQVLDNFFRSHISTDAHSLNSAAQ [R279S],-0.377
